According to patent US5843648:

Columns and labels:
[1] = target: gp75 presented by HLA-A31 (COS cells transfected with gp75 plus HLA-A31) (human) (UniProt P17643)
[2] = target: MART-1 with HLA-A24 (COS-7 cells transfected with MART-1 + HLA-A24) (human) (UniProt Q16655)
[3] = target: gp100 with HLA-A24 (COS-7 cells transfected with gp100 + HLA-A24) (human) (UniProt P40967)
[4] = target: gp75 with HLA-A24 (COS-7 cells transfected with gp75 + HLA-A24) (human) (UniProt P17643)
[5] = target: tyrosinase presented by HLA-A24 (COS-7 cells transfected with tyrosinase + HLA-A24) (human)
[6] = target: p15 presented by HLA-A24 (293-A24 or COS-7 cells transfected with the p15 cDNA and HLA-A24) (human)
[7] = target: gp100 presented by HLA-A2 (COS cells transfected with gp100 plus HLA-A2) (human) (UniProt P40967)
[8] = target: MART-1 presented by HLA-A2 (COS cells transfected with MART-1 plus HLA-A2) (human) (UniProt Q16655)
[9] = target: Clone 1 (full length p15 RT-PCR product from 888 EBV B cells) presented by HLA-A24 on COS-7 cells (human)
[10] = target: Clone 2 (truncated p15 RT-PCR product from 888 EBV B cells) presented by HLA-A24 on COS-7 cells (human)
[11] = target: β-gal with HLA-A24 (COS-7 cells transfected with β-gal + HLA-A24) (human)
[12] = target: p15 10-18 peptide … presented by HLA-A24 on 888 EBV B cells (human)
[13] = target: p15 9-18 peptide … presented by HLA-A24 on 888 EBV B cells (human)
[14] = target: p15 10-18 peptide … presented by HLA-A24 on 888 EBV B cells (human); remark: listed apart in the source
[15] = target: p15 9-18 peptide … presented by HLA-A24 on 888 EBV B cells (human); remark: listed apart in the source
[16] = target: tyrosinase presented by HLA-A24 (COS-7 cells transfected with tyrosinase + HLA-A24) (human); remark: listed apart in the source
[17] = target: β-gal with HLA-A24 (COS-7 cells transfected with β-gal + HLA-A24) (human); remark: listed apart in the source
[18] = target: tyrosinase peptide T10166 (…) on HLA-A24+ 888 EBVB cells (human)
[19] = target: tyrosinase peptide T10180 (…) on HLA-A24+ 888 EBVB cells (human)
[20] = target: tyrosinase peptide T10199 (…) on HLA-A24+ 888 EBVB cells (human)
[21] = target: tyrosinase peptide T10206 (…) presented by HLA-A24 on 888 EBVB cells (human)
[22] = target: tyrosinase peptide T10209 (…) on HLA-A24+ 888 EBVB cells (human)
[23] = target: tyrosinase peptide T10213 (…) on HLA-A24+ 888 EBVB cells (human)
[24] = target: tyrosinase peptide T9177 (…) on HLA-A24+ 888 EBVB cells (human)
[25] = target: tyrosinase peptide T9180 (…) on HLA-A24+ 888 EBVB cells (human)
[26] = target: tyrosinase peptide T9181 (…) on HLA-A24+ 888 EBVB cells (human)
[27] = target: tyrosinase peptide T9199 (…) on HLA-A24+ 888 EBVB cells (human)
[28] = target: tyrosinase peptide T9206 (…) presented by HLA-A24 on 888 EBVB cells (human)

**Q.** “TIL 586 (cells without a defined receptor)” was tested. Which GM-CSF [1] did it give?
**A.** 770 pg/mL

**Q.** Which GM-CSF [2] does the source give for “TIL 888 (cells without a defined receptor)” here?
**A.** 140 pg/mL

**Q.** And the GM-CSF [3]?
**A.** 120 pg/mL

**Q.** And the GM-CSF [4]?
**A.** 130 pg/mL

**Q.** What about the GM-CSF [5] of the same substance?
**A.** 1500 pg/mL

**Q.** And the GM-CSF [6]?
**A.** 60 pg/mL

**Q.** With “TIL 1200 (cells without a defined receptor)” as the substance, how does the GM-CSF [7] read?
**A.** 1500 pg/mL

**Q.** How did the GM-CSF [8] turn out when “TIL 1235 (cells without a defined receptor)” was run?
**A.** 1800 pg/mL

**Q.** For “TIL 1290 (cells without a defined receptor)”, which GM-CSF [2] is on record?
**A.** 20 pg/mL

**Q.** And the GM-CSF [3]?
**A.** 10 pg/mL

**Q.** What about the GM-CSF [4] of the same substance?
**A.** 20 pg/mL

**Q.** And the GM-CSF [5]?
**A.** 20 pg/mL

**Q.** And the GM-CSF [6]?
**A.** 400 pg/mL

**Q.** What about the GM-CSF (pg/ml), Expt. 1 and Expt. 2 [9] of the same substance?
**A.** 740 pg/mL

**Q.** And the GM-CSF (pg/ml), Expt. 1 and Expt. 2 [10]?
**A.** 300 pg/mL

**Q.** And the GM-CSF (pg/ml), Expt. 1 and Expt. 2 [11]?
**A.** 40 pg/mL

**Q.** What about the GM-CSF (pg/ml) at 10 ug/ml peptide [12] of the same substance?
**A.** 910 pg/mL

**Q.** What about the GM-CSF (pg/ml) at 10 ug/ml peptide [13] of the same substance?
**A.** 780 pg/mL

**Q.** And the minimum peptide concentration sensitizing 888 EBV B cells for lysis (51Cr release) [14]?
**A.** 1 ng/mL

**Q.** What about the minimum peptide concentration stimulating significant GM-CSF release [14] of the same substance?
**A.** 10 ng/mL

**Q.** And the minimum peptide concentration sensitizing 888 EBV B cells for lysis (51Cr release) [15]?
**A.** 10 ng/mL

**Q.** And the minimum peptide concentration stimulating significant GM-CSF release [15]?
**A.** 10 ng/mL

**Q.** With “TIL 1413 (cells without a defined receptor)” as the substance, how does the GM-CSF Secretion [16] read?
**A.** 292 pg/mL

**Q.** What about the GM-CSF Secretion [17] of the same substance?
**A.** 30 pg/mL

**Q.** What about the % Specific Lysis (E:T 40:1) and GM-CSF (pg/ml) (% specific lysis) [18] of the same substance?
**A.** -1

**Q.** What about the % Specific Lysis (E:T 40:1) and GM-CSF (pg/ml) (% specific lysis) [19] of the same substance?
**A.** 1

**Q.** What about the % Specific Lysis (E:T 40:1) and GM-CSF (pg/ml) (% specific lysis) [20] of the same substance?
**A.** 1

**Q.** And the % Specific Lysis (E:T 40:1) and GM-CSF (pg/ml) (% specific lysis) [21]?
**A.** 20

**Q.** What about the % Specific Lysis (E:T 40:1) and GM-CSF (pg/ml) (% specific lysis) [22] of the same substance?
**A.** 0

**Q.** And the % Specific Lysis (E:T 40:1) and GM-CSF (pg/ml) (% specific lysis) [23]?
**A.** 1

**Q.** What about the % Specific Lysis (E:T 40:1) and GM-CSF (pg/ml) (% specific lysis) [24] of the same substance?
**A.** 0

**Q.** And the % Specific Lysis (E:T 40:1) and GM-CSF (pg/ml) (% specific lysis) [25]?
**A.** 2

**Q.** What about the % Specific Lysis (E:T 40:1) and GM-CSF (pg/ml) (% specific lysis) [26] of the same substance?
**A.** -1

**Q.** What about the % Specific Lysis (E:T 40:1) and GM-CSF (pg/ml) (% specific lysis) [27] of the same substance?
**A.** 0

**Q.** What about the % specific lysis (E:T 40:1) (% specific lysis) [28] of the same substance?
**A.** 26
